Publication PMC2141641 (The Journal of Cell Biology, 1997)

B1: GST-CD36 fusion protein FP93-120 (domain or fragment, human, UniProt P16671 93-120, looked up)
chain: YRVRFLAKENVTQDAEDNTVSFLQPNGA

How the values were obtained:
Experiment in all cases: radioligand binding
Thrombospondin-1 = Thrombospondin-1 (human, UniProt P07996 19-1170, 125I label (radiolabeled TSP-1) in the binding assays)
[1] = target: CD36 expressed on Bowes melanoma cells stably transfected with human CD36 cDNA (human, UniProt P16671 1-472)
CD36 expressed on Bowes melanoma cells stably transfected with human CD36 cDNA, sequence (P16671 whole entry): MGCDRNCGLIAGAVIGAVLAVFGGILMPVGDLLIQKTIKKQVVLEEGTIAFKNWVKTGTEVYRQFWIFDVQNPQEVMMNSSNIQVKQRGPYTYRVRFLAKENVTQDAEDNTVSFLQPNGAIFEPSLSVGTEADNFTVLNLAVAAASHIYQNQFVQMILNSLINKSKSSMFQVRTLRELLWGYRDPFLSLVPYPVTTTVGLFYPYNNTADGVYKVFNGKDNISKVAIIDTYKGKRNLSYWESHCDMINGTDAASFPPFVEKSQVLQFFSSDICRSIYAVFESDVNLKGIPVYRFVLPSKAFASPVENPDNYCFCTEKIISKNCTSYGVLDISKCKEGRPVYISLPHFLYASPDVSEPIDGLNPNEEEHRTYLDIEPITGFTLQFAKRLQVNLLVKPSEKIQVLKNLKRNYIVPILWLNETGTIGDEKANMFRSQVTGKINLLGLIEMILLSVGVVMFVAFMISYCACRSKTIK

[2] = target: B1

Thrombospondin-1, sequence (P07996 19-1170): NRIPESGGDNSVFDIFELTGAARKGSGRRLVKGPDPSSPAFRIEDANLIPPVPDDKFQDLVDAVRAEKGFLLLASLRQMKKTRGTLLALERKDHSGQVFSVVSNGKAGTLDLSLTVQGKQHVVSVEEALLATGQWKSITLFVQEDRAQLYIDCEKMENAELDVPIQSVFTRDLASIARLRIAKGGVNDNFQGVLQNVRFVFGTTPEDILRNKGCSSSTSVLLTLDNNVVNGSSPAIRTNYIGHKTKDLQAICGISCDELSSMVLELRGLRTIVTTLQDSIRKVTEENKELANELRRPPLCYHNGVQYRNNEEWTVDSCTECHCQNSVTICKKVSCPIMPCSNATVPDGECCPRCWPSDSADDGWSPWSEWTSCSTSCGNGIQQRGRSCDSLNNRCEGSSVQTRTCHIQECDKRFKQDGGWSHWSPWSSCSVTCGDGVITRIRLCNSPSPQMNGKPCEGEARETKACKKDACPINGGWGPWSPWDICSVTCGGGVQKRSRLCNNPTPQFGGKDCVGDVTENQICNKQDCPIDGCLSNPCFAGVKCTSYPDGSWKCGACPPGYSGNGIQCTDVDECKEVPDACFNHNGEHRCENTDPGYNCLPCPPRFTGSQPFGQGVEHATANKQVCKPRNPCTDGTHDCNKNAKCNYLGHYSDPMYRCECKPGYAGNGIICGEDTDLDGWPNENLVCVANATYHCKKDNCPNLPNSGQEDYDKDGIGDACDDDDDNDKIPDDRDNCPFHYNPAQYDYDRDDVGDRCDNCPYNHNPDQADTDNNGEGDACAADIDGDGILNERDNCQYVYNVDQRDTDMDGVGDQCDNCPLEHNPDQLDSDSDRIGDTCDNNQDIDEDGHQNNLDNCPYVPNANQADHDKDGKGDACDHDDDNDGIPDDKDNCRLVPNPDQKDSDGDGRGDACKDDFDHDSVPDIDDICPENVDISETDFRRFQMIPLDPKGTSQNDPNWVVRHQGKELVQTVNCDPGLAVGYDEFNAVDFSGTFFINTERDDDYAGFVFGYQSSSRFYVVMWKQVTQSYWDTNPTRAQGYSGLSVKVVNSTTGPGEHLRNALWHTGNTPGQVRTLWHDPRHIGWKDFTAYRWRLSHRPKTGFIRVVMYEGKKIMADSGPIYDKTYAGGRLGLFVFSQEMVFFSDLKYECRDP

Row | Binder | binding result (Thrombospondin-1) | IC50 [1] | binding result [2]
1 | GST-CD36 fusion protein FP67-157 (domain or fragment, human, UniProt P16671 67-157, looked up) IFDVQNPQEVMMNSSNIQVKQRGPYTYRVRFLAKENVTQDAEDNTVSFLQPNGAIFEPSLSVGTEADNFTVLNLAVAAASHIYQNQFVQMI | binds |  | 
2 | NGVQYRN [TSP-1 peptide Col overlap] |  | 30.1 ± 8.88 µM | 
3 | B1 | binds |  | 
4 | SPWDIASVTAGGGVQKRSK [TSP-1 peptide Mal III] |  | 8.6 ± 1.12 µM | binds
